Reference: the RNAGym collection of RNA variant scans (doi:10.1073/pnas.2313332121)
This sample holds only a part of the variants without activity.

B1: TPR 5TU (parent)
chain: GGAUCUUCUCGAUCUAACAAAAAAGACAAAUCUGCCACAAAGCUUGAGAGCAUCUUCGGAUGCAGAGGCGGCAGCCUUCGGUGGCGCGAUAGCGCCAACGUUCUCAACUAUGACACGCAAAACGCGUGCUCCGUUGAAUGGAGUUUAUCAUG

Variants of: B1
Experiment: polymerase ribozyme fitness, log enrichment relative to wild type (log ratio); higher = more active; in vitro selection for triplet polymerase activity
Outline: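 Mutant libraries were PCR-built and transcribed for each subunit of a heterodimeric triplet polymerase ribozyme and selected for one round in triplicate at −7 °C, frozen, before gel excision of extended constructs and streptavidin-bead capture. Input and output libraries were Illumina-sequenced, keeping genotypes with ≥10 input reads and ≥1 read per output. Fitness is a logarithmic ratio of genotype to wild-type enrichment, in base 2, using inverse-variance-weighted replicate averages.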

| Variant | polymerase ribozyme fitness (log ratio) |
| --- | --- |
| A28U A73G | ≤ -4.2 |
| U53A G83C | -2.61 |
| G58C A98U | -0.459 |
| G50C U61A A110U U145G | ≤ -4.2 |
| A19U G59A G83U C95A C132U G136U G141A | ≤ -4.2 |
| A91U A142U | -3.67 |
| U33A C43G G50U G84A A89U | ≤ -4.2 |
| U82G G128U | -3.35 |
| C96U C103U | -1.25 |
| U53A C93A U101C C125U C132U G140U A147C | ≤ -4.2 |
| G46A C54G G86U G117A A119G A137G G141C G143U | ≤ -4.2 |
| A22U U82A | 0.472 |
| G42C U82G U104A C116U A137G G152A | ≤ -4.2 |
| U7A C8G U13G U90G C95G U134A | ≤ -4.2 |
| A49U U101C C116U | -1.49 |
| A73U C96G | -1.8 |
| A16C U101G | -0.303 |
| G42U G59U G84A C85U C103G A119G | ≤ -4.2 |
| G42U A60G U61G C96G C99G C125U A150C | ≤ -4.2 |
| A17C A37C A52U G83U | -3.08 |
| A40U C54A A110G A120U | -4.07 |

| Variant | polymerase ribozyme fitness (log ratio) |
| --- | --- |
| A52C C96U U130A U144G A147C | -3.6 |
| U13C C32A A49C | ≤ -4.2 |
| G25A U55A U135A | -3.79 |
| G46C C114U | -3.67 |
| A12G G83C | -0.586 |
| A12U A19C U44G U148C | ≤ -4.2 |
| C32U U55G U61C G84U G100C | ≤ -4.2 |
| A24C C72A C103A U109G G126U | ≤ -4.2 |
| A21G G50C A52C C79U C118U | ≤ -4.2 |
| U90C U127C | ≤ -4.2 |
| C76A C96A G128C | ≤ -4.2 |
| G50A C96G | -1.55 |
| C8U A22C A26C G50C C85A C116U C118A | ≤ -4.2 |
| C5A U45C A64U C75A G141C U145C A150U | ≤ -4.2 |
| C38U A60C C85U C118U G136A | -0.726 |
| U45A G65C A73G G84A A142G | ≤ -4.2 |
| C8A A142C | -4.11 |
| G50A G59C U90G | ≤ -4.2 |
| G84U U134A A142C | ≤ -4.2 |
| U6A C69A G92U A98G U111C G152C | ≤ -4.2 |
| A26G G59A A89C C105U | ≤ -4.2 |

| Variant | polymerase ribozyme fitness (log ratio) |
| --- | --- |
| C54U C57G C87A G128A | ≤ -4.2 |
| C10G U13G C87U C125U | ≤ -4.2 |
| A17G C96U | 0.456 |
| C85A U139C U145C | ≤ -4.2 |
| U56A U104G A115C A142C | ≤ -4.2 |
| C54U G88A A89U C95A C99U U146G U151A | ≤ -4.2 |
| C51A G58A G74C C96U A107C | ≤ -4.2 |
| G50C C125A | -2.76 |
| G70A G84A C87G A113C A120G | ≤ -4.2 |
| C10A C76G G81A G86U A137U | ≤ -4.2 |
| A40U A49C | ≤ -4.2 |
| C5G G83A | -1.24 |
| U7A C43U A49G A110G | ≤ -4.2 |
| C10U C57U C96U | -3.83 |
| A49C A52G G83A U102G U134G | -3.78 |
| U55C G83C A115C C132U | -2.06 |
| C35A G42U G48A G68A A106C C116U A120U G141A | ≤ -4.2 |
| U55G C57A C69U U109G C116A | -0.0851 |
| G100C G136U U146G | ≤ -4.2 |
| C36U G46U G86U C105A G124U | -3.12 |
| C14U C87U U102C | -4.18 |

| Variant | polymerase ribozyme fitness (log ratio) |
| --- | --- |
| C27G C36U G50U A73U U82A C95U | ≤ -4.2 |
| C79U C87U A113G | -4.11 |
| A21U A24C C27G A28U G88U U102C A107C C114U | ≤ -4.2 |
| A30U G83U G141U | -3.89 |
| C54A C105U A121G | -0.876 |
| A39U G59C G83U A147U | -2.17 |
| A66G C93U A107U A138U U139A | ≤ -4.2 |
| G46U A52C A89U G94A G133C | ≤ -4.2 |
| G50C A52C G86U C87A | ≤ -4.2 |
| C51G C75U C79A G80C C87A A98U C103G U145G | ≤ -4.2 |
| C76A U82A C85G A106G A107U C108G C129A | ≤ -4.2 |
| C35U G58C U90G U104A G126A U135A U145G | ≤ -4.2 |
| C36U G59C C131U | -0.515 |
| A49U A89U C132U | -2.65 |
| G25C A52C G58C G59C A138U | ≤ -4.2 |
| A52C C75U A97U U109G C114A | -3.53 |
| A3G G50C C76A A115U C131G | ≤ -4.2 |
| G71C C85U | -3.27 |
| C18G C32U C43U A89C | ≤ -4.2 |
| A21C U55G C93U G126U | -0.141 |
